Experimental data reported in patent publication US20230265208A1 (Dana-Farber, published 2023).
Substitutions are numbered along the chain they refer to.

How the values were obtained:
[1] = biological target: T1, MUC1 on HCT116/MUC1 cells (human, UniProt P15941 24-1255); assay: flow cytometry on HCT116/MUC1 cells; antibody at 33.33333 nM
T1 sequence (P15941 24-1097, chain 1 of 2): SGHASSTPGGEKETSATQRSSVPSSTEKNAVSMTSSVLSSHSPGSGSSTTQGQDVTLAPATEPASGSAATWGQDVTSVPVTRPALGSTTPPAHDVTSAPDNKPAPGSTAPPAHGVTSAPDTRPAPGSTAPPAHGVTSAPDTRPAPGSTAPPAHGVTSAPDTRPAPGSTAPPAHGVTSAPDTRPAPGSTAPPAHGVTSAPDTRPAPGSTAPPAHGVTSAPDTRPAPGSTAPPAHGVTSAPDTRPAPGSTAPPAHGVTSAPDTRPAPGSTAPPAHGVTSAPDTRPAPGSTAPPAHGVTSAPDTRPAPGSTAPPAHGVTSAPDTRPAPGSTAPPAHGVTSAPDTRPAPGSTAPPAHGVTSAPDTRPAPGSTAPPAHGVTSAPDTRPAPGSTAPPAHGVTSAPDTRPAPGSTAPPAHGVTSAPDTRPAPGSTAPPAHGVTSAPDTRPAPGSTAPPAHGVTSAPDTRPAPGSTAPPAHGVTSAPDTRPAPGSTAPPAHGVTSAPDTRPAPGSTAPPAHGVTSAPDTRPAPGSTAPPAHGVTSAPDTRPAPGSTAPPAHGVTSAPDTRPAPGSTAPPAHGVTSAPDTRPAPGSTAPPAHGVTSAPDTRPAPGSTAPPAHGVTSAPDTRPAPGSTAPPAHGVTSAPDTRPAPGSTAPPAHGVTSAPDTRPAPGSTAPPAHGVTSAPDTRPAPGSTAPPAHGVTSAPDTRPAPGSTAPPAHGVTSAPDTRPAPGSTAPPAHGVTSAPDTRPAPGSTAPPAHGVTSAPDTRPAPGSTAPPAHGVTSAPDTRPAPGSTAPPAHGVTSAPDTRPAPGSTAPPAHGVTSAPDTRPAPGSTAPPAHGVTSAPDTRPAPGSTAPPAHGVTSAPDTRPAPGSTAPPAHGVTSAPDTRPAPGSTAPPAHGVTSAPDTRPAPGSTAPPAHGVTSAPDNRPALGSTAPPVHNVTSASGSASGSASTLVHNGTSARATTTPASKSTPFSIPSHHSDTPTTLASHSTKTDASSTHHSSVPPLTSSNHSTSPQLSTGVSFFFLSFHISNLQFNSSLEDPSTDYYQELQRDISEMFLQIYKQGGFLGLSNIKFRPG
T1 sequence (P15941 1098-1255, chain 2 of 2): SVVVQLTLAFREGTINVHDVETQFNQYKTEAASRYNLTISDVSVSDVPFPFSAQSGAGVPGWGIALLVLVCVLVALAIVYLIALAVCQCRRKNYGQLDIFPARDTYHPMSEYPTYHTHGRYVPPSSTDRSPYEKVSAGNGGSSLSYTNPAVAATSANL

[2] = biological target: T1, MUC1 on HCT116/MUC1 cells; assay: flow cytometry on HCT116/MUC1 cells; antibody at 0.045725 nM
[3] = biological target: T1, MUC1 on HCT116/MUC1 cells; assay: flow cytometry on HCT116/MUC1 cells; antibody at 300 nM
[4] = biological target: T1, MUC1 on HCT116/MUC1 cells; assay: flow cytometry on HCT116/MUC1 cells; antibody at 0.137174 nM
[5] = biological target: T1, MUC1 on HCT116/MUC1 cells; assay: flow cytometry on HCT116/MUC1 cells; antibody at 100 nM
[6] = biological target: T1, MUC1 on HCT116/MUC1 cells; assay: flow cytometry on HCT116/MUC1 cells; antibody at 11.11111 nM
[7] = biological target: T1, MUC1 on HCT116/MUC1 cells; assay: flow cytometry on HCT116/MUC1 cells; antibody at 0.411523 nM
[8] = biological target: T1, MUC1 on HCT116/MUC1 cells; assay: flow cytometry on HCT116/MUC1 cells; antibody at 3.703704 nM
[9] = biological target: T1, MUC1 on HCT116/MUC1 cells; assay: flow cytometry on HCT116/MUC1 cells; antibody at 0.015242 nM
[10] = biological target: T1, MUC1 on HCT116/MUC1 cells; assay: flow cytometry titration on HCT116/MUC1 cells
Protocol: (§1) FACS titration of humanized antibodies. For affinity ranking of humanized antibodies to HCT116/MUC1 cells (a human colon cancer cell line engineered to express MUC1), the purified antibodies were subject to FACs titration. In brief, HCT116/MUC1 cells were cultured and harvested by centrifugation. About 2.5×10⁵ cells per well were washed with PBS twice and incubated in 200 μl of serial dilutions of antibodies for 30 min at 4° C. After washing with PBS., secondary antibody (3 μg Goat anti-Human IgG(H+L) I Fluor 647) was added to the cells and incubated for 30 min at 4° C. After washing with PBS, cells were analyzed for binding (EC₅₀) by using FACS Calibur (BD Bioscience, San Jose, Calif.) and Flowjo software.
(§2) FACS titration of humanized antibodies. Each of the 7 antibodies was titrated for its binding capacity to HCT116/MUC1 cells at various concentrations and the results are mentioned in Table 8 and with a graphical representation in FIG. 5.

[11] = biological target: T1, MUC1 on HCT116/MUC1 cells; assay: flow cytometry on HCT116/MUC1 cells; antibody at 1.234568 nM
[12] = biological target: T2, MUC1 on HCT116/MUC1 cells (human, UniProt P15941 24-1255); assay: flow cytometry titration on HCT116/MUC1 cells
T2 construct: whole, on cells; Human colon cancer cell line engineered to express MUC1
Protocol: as §1, §2
T2 sequence (P15941 24-1255): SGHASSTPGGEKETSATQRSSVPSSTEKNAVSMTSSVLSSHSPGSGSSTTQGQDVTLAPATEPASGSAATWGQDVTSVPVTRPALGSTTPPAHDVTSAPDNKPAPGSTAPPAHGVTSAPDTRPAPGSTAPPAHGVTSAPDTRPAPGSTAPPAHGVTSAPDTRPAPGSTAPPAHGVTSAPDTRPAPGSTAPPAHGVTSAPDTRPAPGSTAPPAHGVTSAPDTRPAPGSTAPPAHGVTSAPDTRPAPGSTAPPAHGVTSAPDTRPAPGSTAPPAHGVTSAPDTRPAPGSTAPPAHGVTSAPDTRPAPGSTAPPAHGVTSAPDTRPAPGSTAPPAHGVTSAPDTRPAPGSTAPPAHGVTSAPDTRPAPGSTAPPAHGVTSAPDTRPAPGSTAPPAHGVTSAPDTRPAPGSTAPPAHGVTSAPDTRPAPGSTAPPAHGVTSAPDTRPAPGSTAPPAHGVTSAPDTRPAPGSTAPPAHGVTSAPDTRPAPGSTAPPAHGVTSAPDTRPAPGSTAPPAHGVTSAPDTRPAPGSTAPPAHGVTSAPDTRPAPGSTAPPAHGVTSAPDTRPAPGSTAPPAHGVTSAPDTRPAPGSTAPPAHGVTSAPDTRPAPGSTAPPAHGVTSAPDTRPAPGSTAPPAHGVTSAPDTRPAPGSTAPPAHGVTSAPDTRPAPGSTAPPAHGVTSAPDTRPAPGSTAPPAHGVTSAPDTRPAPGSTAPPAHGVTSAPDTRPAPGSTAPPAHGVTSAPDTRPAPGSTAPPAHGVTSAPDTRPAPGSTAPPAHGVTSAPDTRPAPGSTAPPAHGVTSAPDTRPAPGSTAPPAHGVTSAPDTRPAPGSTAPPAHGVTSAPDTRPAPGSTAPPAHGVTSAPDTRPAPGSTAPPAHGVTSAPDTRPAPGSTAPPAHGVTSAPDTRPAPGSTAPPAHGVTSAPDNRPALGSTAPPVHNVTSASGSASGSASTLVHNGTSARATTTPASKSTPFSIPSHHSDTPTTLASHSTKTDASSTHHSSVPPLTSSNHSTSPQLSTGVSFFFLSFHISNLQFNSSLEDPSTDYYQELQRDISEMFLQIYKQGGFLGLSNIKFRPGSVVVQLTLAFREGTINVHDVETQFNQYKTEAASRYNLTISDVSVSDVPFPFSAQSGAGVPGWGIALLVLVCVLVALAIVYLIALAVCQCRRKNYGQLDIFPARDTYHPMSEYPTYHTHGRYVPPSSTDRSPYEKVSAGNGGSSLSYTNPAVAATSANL

B1: VH1 + VL3 (antibody, V domains shown)
VH: QVQLVQSGAEVKKPGSSVKVSCKASGYAFSNFWMNWVRQAPGQGLEWMGQIYPGDGDTNYNGKFKGRVTITADKSTSTAYMELSSLRSEDTAVYYCARSYYRSAWFAYWGQGTLVTVSS
VL: EIVLTQSPATLSLSPGERATLSCRASQSIGTSIHWYQQKPGQAPRLLIYYASESISGIPARFSGSGSGTDFTLTISSLEPEDFAVYYCQQSNNWPLTFGGGTKVEIK
In the case of B1, the FACS titration signal [1] is reported as 41, the FACS titration signal [2] is reported as 8.96 and the FACS titration signal [3] is reported as 42. For the same binder, the FACS titration signal [4] was 9.47, the FACS titration signal [5] was 41.7 and the FACS titration signal [6] was 20.2. It also gave an FACS titration signal [7] of 6.22, an FACS titration signal [8] of 10.4 and an FACS titration signal [9] of 5.76. It also gave an EC50 [10] of 13.2 nM and an FACS titration signal [11] of 7.09.

B2: VH1 + VL4 (antibody, V domains shown)
VH: B1 VH
VL: AIQLTQSPSSLSASVGDRVTITCRASQSIGTSIHWYQQKPGKAPKLLIYYASESISGVPSRFSGSGSGTDFTLTISSLQPEDFATYYCQQSNNWPLTFGGGTKVEIK
B2 was tested, and the FACS titration signal [1] was 57.8, the FACS titration signal [2] was 5.99 and the FACS titration signal [3] was 53.9. For the same binder, the FACS titration signal [4] was 5.5, the FACS titration signal [5] was 56.2 and the FACS titration signal [6] was 32.3. For the same binder, the FACS titration signal [7] was 10.1, the FACS titration signal [8] was 16.6 and the FACS titration signal [9] was 5.73. For the same binder, the EC50 [10] was 9.8 nM and the FACS titration signal [11] was 7.61.

B3: VH2 + VL3 (antibody, V domains shown)
VH: B1 VH with S16A, I70M, A72R, K74T, A79V
VL: B1 VL
Binder B3 has an FACS titration signal [1] of 43, an FACS titration signal [2] of 5.46 and an FACS titration signal [3] of 44.1. The FACS titration signal [4] was 9.04, the FACS titration signal [5] was 43.8 and the FACS titration signal [6] was 21.5. The FACS titration signal [7] was 6.48, the FACS titration signal [8] was 13.9 and the FACS titration signal [9] was 8.96. The EC50 [10] was 13.3 nM and the FACS titration signal [11] was 10.6.

B4: VH5 + VL2 (antibody, V domains shown)
VH: EVQLVQSGAEVKKPGESLKISCKGSGYAFSNFWMNWVRQMPGKGLEWMGQIYPGDGDTNYNGKFKGQVTISADKSISTAYLQWSSLKASDTAMYYCARSYYRSAWFAYWGQGTLVTVSL
VL: B1 VL with L4M, L13V, D70E, E79Q, P80S
Work on B4 yielded an FACS titration signal [1] of 48.1, an FACS titration signal [2] of 6.76 and an FACS titration signal [3] of 46.3. It also gave an FACS titration signal [4] of 9.2, an FACS titration signal [5] of 48.9 and an FACS titration signal [6] of 33.4. For the same binder, the FACS titration signal [7] was 9.71, the FACS titration signal [8] was 17.3 and the FACS titration signal [9] was 5.88. It also gave an EC50 [10] of 7.69 nM and an FACS titration signal [11] of 11.8.

B5: VH5 + VL3 (antibody, human IgG1, kappa, V domains shown)
VH: EVQLVQSGAEVKKPGESLKISCKGSGFTFNYFWIEWVRQMPGKGLEWMGEILPGTGSTNYNEKFKGQVTISADKSISTAYLQWSSLKASDTAMYYCARYDYTSSMDYWGQGTLVTVSS
VL: EIVLTQSPATLSLSPGERATLSCRASESVQYSGTSLMHWYQQKPGQAPRLLIYGASNVETGIPARFSGSGSGTDFTLTISSLEPEDFAVYYCQQNWKVPWTFGQGTKVEIKR
notes: Full-length humanized IgG expressed in HEK293 and purified on protein A. Constant regions not specified; also called #23 (inferred from 5x5 numbering)
B5 was tested, and the EC50 [12] was 12.2 nM.

B6: Chimeric IgG (antibody, V domains shown)
VH: QVQLQQSGAELMKPGASVKISCKAIGFTFNYFWIEWVKQRPGHGLEWIGEILPGTGSTNYNEKFKGKAIFTADTSSNTAYMQLRSLTSEDSAVYYCVRYDYTSSMDYWGQGTSVTVSS
VL: DIVLTQSPGSLAVSLGQSVTISCRASESVQYSGTSLMHWYQQKPGQPPKLLIYGASNVETGVPARFSGSGSGTDFSLNIHPVEEDDIAMYFCQQNWKVPWTFGGGTKLEIKR
notes: Chimera of the parental mouse antibody with a human Fc (captured by anti-human Fc); also called chimeric antibody; parent chimeric antibody
Binder B6 has an EC50 [12] of 6.08 nM.
